Literature values as cited in paper PMC3334866.

Target: Vinculin D1 (UniProt P18206)
UniProt P18206, sequence (P18206 1-258): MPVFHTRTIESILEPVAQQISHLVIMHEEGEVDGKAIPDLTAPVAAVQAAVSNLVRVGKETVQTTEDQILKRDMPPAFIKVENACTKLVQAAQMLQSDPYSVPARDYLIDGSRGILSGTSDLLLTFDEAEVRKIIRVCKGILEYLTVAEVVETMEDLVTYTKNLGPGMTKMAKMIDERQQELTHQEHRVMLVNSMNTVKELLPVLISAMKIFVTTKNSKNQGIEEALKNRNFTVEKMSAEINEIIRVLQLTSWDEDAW

Q: With IpaA peptide (from UniProt P18010) as the substance, how does the Kd read?
A: < 1 nM
